The test concerns the target unmodified R1810 peptide of the RNAP2-CTD (human). As to the kind of experiment: MST.

The Kd is the equilibrium constant for the complex coming apart. A lower Kd goes with tighter binding. The substance “recombinant PADI2 (peptidyl arginine deiminase 2) (from UniProt Q9Y2J8 1-665) (enzyme)” showed a Kd of 0.22 µM. This counts as sub-micromolar.

(Values after doi:10.1101/216143.)
